Target: ELP-substrate fusion M(GVGVP)60…
Experiment: cell-based or functional assay

Chain of ELP-substrate fusion M(GVGVP)60… (chain, as listed by the source): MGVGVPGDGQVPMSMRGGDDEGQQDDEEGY

aggregation time (optical density versus time), 50 ng/mL MMP-1, without inhibitor: < 50 min
Substance: Human MMP-1 catalytic domain (recombinant, produced in E. coli, 19.9 kDa) (from UniProt P03956 100-269) (enzyme)
